Measurements published in patent publication US20180105596A1 (ELSALYS BIOTECH, published 2018).
Numbering of substitutions follows the chain as printed.

T1: immunoglobulin-like domain Ig-2 of human Tyro3 (human, UniProt Q06418 139-220)
T1 construct: No fragment of Ig-2 alone was made
T1 sequence: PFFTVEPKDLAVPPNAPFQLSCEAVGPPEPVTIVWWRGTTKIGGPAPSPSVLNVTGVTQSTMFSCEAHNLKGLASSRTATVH

T2: extracellular domain of human Axl, Fc fusion (R&D Systems 154-AL-100) (human, UniProt P30530 26-451)
T2 construct: Bought protein; also called hAxl; hAXL; not shown: Fc of the bought ECD-Fc fusion
T2 sequence: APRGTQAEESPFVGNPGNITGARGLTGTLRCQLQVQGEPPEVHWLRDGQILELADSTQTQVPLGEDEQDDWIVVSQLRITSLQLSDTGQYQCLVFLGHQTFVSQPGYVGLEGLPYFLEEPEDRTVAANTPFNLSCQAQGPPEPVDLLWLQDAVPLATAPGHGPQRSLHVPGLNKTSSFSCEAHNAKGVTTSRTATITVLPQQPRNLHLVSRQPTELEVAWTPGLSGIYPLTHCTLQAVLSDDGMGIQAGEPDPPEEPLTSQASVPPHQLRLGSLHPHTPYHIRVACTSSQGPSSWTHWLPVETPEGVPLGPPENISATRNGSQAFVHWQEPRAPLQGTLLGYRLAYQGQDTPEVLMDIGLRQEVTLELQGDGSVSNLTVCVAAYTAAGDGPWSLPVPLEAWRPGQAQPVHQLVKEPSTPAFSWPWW

T3: extracellular domain of human Mer, Fc fusion (R&D Systems 891-MR-100) (human, UniProt Q12866 21-505)
T3 construct: Bought protein; also called hMer; hMER; not shown: Fc of the bought ECD-Fc fusion
T3 sequence: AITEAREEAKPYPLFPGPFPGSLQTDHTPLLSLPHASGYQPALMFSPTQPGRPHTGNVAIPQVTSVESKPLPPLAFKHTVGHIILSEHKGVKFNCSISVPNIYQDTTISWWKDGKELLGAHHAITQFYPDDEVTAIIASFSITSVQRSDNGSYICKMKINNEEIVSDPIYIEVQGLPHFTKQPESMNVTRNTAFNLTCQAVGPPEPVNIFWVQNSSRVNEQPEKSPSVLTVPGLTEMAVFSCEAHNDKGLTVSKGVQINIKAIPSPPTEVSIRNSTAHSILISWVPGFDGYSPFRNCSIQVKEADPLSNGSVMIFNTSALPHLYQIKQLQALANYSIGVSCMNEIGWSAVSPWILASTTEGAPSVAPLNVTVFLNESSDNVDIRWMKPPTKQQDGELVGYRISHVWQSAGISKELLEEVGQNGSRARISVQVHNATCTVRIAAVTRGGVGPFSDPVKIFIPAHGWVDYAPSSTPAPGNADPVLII

T4: hTyro 3-ECD
T4 construct: not the His-Strep tagged ECD m13; also called Recombinant Human Dtk-Fc Chimera (R&D Systems 859-DK-100); not shown: Human Fc, and any linker, of the commercial chimera (R&D Systems 859-DK-100)
T4 chain: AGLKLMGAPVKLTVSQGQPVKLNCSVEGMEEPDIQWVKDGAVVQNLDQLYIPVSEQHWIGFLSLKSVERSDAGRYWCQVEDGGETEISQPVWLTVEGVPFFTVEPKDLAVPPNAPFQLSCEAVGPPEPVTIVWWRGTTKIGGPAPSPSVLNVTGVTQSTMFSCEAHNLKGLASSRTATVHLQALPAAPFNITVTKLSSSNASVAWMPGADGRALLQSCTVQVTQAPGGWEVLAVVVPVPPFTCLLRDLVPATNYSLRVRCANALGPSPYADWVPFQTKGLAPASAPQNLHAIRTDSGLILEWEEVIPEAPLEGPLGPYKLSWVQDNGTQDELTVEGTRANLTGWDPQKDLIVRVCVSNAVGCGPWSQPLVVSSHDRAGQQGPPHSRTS

T5: recombinant His-Strep tagged human Tyro3 extracellular domain (human, UniProt Q06418 41-429)
T5 construct: also called hTyro3 ECD; full Tyro3 ECD
T5 sequence: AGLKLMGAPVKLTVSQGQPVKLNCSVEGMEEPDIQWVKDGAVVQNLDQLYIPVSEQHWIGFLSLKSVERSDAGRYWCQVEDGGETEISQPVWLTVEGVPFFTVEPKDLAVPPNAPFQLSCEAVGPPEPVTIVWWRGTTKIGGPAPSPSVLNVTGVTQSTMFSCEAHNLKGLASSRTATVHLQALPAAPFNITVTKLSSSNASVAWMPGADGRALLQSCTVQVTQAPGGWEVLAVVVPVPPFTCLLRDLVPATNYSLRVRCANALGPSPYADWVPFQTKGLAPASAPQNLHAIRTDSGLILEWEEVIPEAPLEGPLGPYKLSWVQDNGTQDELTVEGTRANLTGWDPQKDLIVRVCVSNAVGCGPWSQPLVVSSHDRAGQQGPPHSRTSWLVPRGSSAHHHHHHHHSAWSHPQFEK

B1: anti-Tyro3 scFv 2414 (scFv, V domains shown)
VH: EVQLVQSGADVKKPGASLTISCQASGYTFTDYWISWVRQKPGKGLEWMGQINRHASNTMYGPSFQGHVTISADRSTATAYLQWRSLEASDTAMYYCVRSGGATSGGTIPEYYQHWGPGTLVTVSS
VL: SYELTQPPSVSVSPGQTARITCSGDALPKKYAYWYQQKSGQAPVLVIYEDWKRASGIPERFSGSSSGTMATLTISGAQVEDEADYYCYSQERKGNYFVFGGGTKLTVL
notes: Tested as a single-chain Fv made in E. coli
B2: anti-Tyro3 scFv 2709 (scFv, V domains shown)
VH: B1 VH with Q50A, N52S, H54N, A55G, N57T, M59Y, A102L, T122P
VL: B1 VL with W51K, A54V, Q90L, E91A, R92V, K93D, F97G
notes: as for B1
B3: anti-Tyro3 scFv 2717 (scFv, V domains shown)
VH: EVQLVQSGADVKKPGASLTISCQASGYTFTDYWISWVRQKPGKGLEWMGEIFLPPSTTVYGPSFQGHVTISADRSTATAYLQWRSLEASDTAMYYCVRQTRLTSGGTIPEYYQHWGPGTLVTVSS
VL: B1 VL with W51N, A54G, Q90K, E91S, R92P, K93E, F97M
notes: as for B1
B4: anti-Tyro3 scFv 2410 (scFv, V domains shown)
VH: B1 VH with N52V, R53P, H54R, N57R, M59N, S99P, G100Y, G101F, A102Q
VL: B1 VL with W51E, K93N, F97A
notes: as for B1
B5: anti-Tyro3 scFv 2415 (scFv, V domains shown)
VH: B1 VH with N52R, R53G, H54P, N57A, M59H, S99H, G100Q, G101Q, A102Q
VL: B1 VL with W51K, A54I, Q90T, E91S, R92T, K93G, F97M
notes: as for B1
B6: anti-Tyro3 scFv 2412 (scFv, V domains shown)
VH: B1 VH with Q50R, N52R, R53P, H54L, A55L, N57H, G100W, G101L
VL: B1 VL with W51A, A54V, Q90A, E91S, R92A, K93N, F97R
notes: as for B1
B7: anti-Tyro3 scFv 2711 (scFv, V domains shown)
VH: B1 VH with N52R, R53G, H54Q, A55H, N57S, M59L, S99H, G101A, A102S
VL: B1 VL with W51A, A54S, Q90L, E91S, R92D, K93S
notes: as for B1
B8: anti-Tyro3 scFv 2713 (scFv, V domains shown)
VH: B1 VH with Q50R, N52S, A55G, N57Q, M59Y, S99A, A102Q
VL: B1 VL with W51H, Q90I, E91S, R92P, K93A, F97G
notes: as for B1

Biological target: T1, immunoglobulin-like domain Ig-2 of …
Test: double sandwich ELISA on captured fragments of hTyro3 ECD

binding result | Binder
no binding (tested: 10 µg/mL) | B1
no binding (tested: 10 µg/mL) | B2
no binding (tested: 10 µg/mL) | B3
no binding (tested: 10 µg/mL) | B4

Biological target: T2, extracellular domain of human Axl, Fc …
Test: ELISA, ECD coated 1 µg/well, scFv 1 µg/mL, anti-tag-HRP
Experimental: (§1) Extracellular domains of hTyro 3 (859-DK-100), hAxl (154-AL-100) or hMer (891-MR-100) from R&D Systems were coated onto 96-wells microtiter plates (1 μg/well) in PBS and incubated overnight at 4° C. Plates were washed three times with PBS and blocked in PBS/3% BSA for 1 hour at RT. Plates were washed as above and scFvs were added at 1 μg/mL (diluted in PBS) and incubated for 1 hour at RT. Plates were washed three times with PBST (PBS/0.01% Tween-20) and secondary antibody anti-FLAG-HRP was added (Abcam, ab49763, 1/5000 dilution in blocking buffer) for 1 hour at RT. Plates were washed as above with PBST and signal was developed with Ultra-TMB reagent (Thermo Scientific, 34028).

binding result | Binder
no binding (tested: 1 µg/mL) | B1
no binding (tested: 1 µg/mL) | B5
no binding (tested: 1 µg/mL) | B6
no binding (tested: 1 µg/mL) | B7
no binding (tested: 1 µg/mL) | B2
no binding (tested: 1 µg/mL) | B3
no binding (tested: 1 µg/mL) | B8
no binding (tested: 1 µg/mL) | B4

Biological target: T3, extracellular domain of human Mer, Fc …
Test: as above
Experimental: as §1

binding result | Binder
no binding (tested: 1 µg/mL) | B1
no binding (tested: 1 µg/mL) | B5
no binding (tested: 1 µg/mL) | B6
no binding (tested: 1 µg/mL) | B7
no binding (tested: 1 µg/mL) | B2
no binding (tested: 1 µg/mL) | B3
no binding (tested: 1 µg/mL) | B8
no binding (tested: 1 µg/mL) | B4

Biological target: T4, hTyro 3-ECD
Test: as above
Experimental: as §1

binding result | Binder
binds | B1
binds | B5
binds | B6
binds | B7
binds | B2
binds | B8
binds | B4

Biological target: T5, recombinant His-Strep tagged human …
Test: sandwich ELISA, Strep-tagged fragment captured on StrepMAB plate, scFv 10 µg/mL (Table 17), anti-FLAG-HRP

binding result | Binder
binds | B2
